The values that follow come from patent publication US20240209092A1 (ADAGENE, published 2024).

Bounds are passed on as bounds.

For test [1], the target named is T1, recombinant cynomolgus monkey CTLA4 protein (extracellular domain) (cynomolgus monkey, UniProt G7PL88 36-161).
T1 sequence: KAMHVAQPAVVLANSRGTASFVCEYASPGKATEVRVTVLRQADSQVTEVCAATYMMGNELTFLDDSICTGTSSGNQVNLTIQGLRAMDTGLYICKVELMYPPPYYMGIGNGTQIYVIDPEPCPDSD
Nature of the test: ELISA, recombinant cynomolgus monkey CTLA4 extracellular domain coated on the plate, captured antibody detected with HRP-labeled anti-human IgG (Fab specific), absorbance at 450 nm.

Test [2] deals with T2, recombinant human CTLA4 protein (extracellular domain) (human, UniProt P16410 36-161).
T2 construct: extracellular domain
T2 sequence (looked up): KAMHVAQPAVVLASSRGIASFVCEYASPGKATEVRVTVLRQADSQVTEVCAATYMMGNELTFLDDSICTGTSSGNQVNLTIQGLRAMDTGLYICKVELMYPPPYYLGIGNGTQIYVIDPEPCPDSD
Briefly: ELISA, recombinant human CTLA4 extracellular domain coated on the plate, captured antibody detected with HRP-labeled anti-human IgG (Fab specific), absorbance at 450 nm.

In test [3] the target is T3, recombinant mouse CTLA4 protein (extracellular domain) (mouse, UniProt P09793 36-161).
T3 construct: extracellular domain
Nature of the test: ELISA, recombinant mouse CTLA4 extracellular domain coated on the plate, captured antibody detected with HRP-labeled anti-human IgG (Fab specific), absorbance at 450 nm.

In test [4] the target is T4, recombinant rat CTLA4 protein (extracellular domain) (rat, UniProt Q62859 36-161).
T4 sequence: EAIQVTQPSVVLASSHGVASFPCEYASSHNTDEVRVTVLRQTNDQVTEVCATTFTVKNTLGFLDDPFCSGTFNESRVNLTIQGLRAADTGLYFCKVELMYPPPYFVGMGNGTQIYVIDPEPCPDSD
Nature of the test: ELISA, recombinant rat CTLA4 extracellular domain coated on the plate, captured antibody detected with HRP-labeled anti-human IgG (Fab specific), absorbance at 450 nm.

In test [5] the target is T4, recombinant rat CTLA4 protein …. Briefly: ELISA, CTLA4 extracellular domain coated; reference masked TY22404.
Test [6] concerns the target T1, recombinant cynomolgus monkey CTLA4 …. Described as above.
For test [7], the target named is T2, recombinant human CTLA4 protein …. Described as above.
Test [8] has as its target T3, recombinant mouse CTLA4 protein …. Described as above.
Test [9] has as its target T5, human CTLA4 expressed on cells (human, UniProt P16410 36-223).
T5 sequence (looked up): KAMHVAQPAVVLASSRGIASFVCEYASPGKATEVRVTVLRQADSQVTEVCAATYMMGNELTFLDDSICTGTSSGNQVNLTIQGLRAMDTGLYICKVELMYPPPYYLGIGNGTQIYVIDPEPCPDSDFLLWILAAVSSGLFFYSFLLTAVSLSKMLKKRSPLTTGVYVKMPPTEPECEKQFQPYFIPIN
Nature of the test: cell-based or functional assay.

Test [10] addresses T4, recombinant rat CTLA4 protein …. Nature of the test: ELISA, CTLA4 extracellular domain coated, HRP anti-human IgG (Fab specific) detection.
For test [11], the target named is T1, recombinant cynomolgus monkey CTLA4 …. The description is as above.
The target in test [12] is T2, recombinant human CTLA4 protein …. The test is described as above.
Test [13] concerns the target T3, recombinant mouse CTLA4 protein …. The description is as above.

B1: TY22404 (masked, masking peptide intact) (antibody)
heavy: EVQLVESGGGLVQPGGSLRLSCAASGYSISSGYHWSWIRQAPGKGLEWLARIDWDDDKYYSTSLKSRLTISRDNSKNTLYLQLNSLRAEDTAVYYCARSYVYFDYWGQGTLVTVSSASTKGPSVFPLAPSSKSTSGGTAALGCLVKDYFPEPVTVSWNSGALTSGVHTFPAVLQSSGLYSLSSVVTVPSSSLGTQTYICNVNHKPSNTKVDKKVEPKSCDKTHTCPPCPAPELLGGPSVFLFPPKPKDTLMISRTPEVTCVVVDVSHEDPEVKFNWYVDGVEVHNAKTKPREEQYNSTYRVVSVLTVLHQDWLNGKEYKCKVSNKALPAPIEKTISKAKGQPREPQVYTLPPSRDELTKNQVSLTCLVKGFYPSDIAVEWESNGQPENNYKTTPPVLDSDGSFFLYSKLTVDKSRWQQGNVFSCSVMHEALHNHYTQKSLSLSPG
light: EVGSYPNPSSDCVPYYYACAYSGRSAGGGGTPLGLAGSGGSDIQLTQSPSSLSASVGDRVTITCRASQSVRGRFLAWYQQKPGKAPKLLIYDASNRATGIPSRFSGSGSGTDFTLTISSLQPEDFATYYCQQSSSWPPTFGQGTKVEIKRTVAAPSVFIFPPSDEQLKSGTASVVCLLNNFYPREAKVQWKVDNALQSGNSQESVTEQDSKDSTYSLSSTLTLSKADYEKHKVYACEVTHQGLSSPVTKSFNRGEC
notes: It has the VH and VL of TY21580, with the mask/linker at the N-terminus of the light chain; also called masked TY22404; masking peptide-intact TY22404
With B1, the “EC50 (read off the curve)” value was approximately 10 nM in test [1], approximately 70 nM in test [2], approximately 100 nM in [3] and approximately 30 nM in test [4].

B2: activated TY22404 by condition 2 (antibody)
heavy: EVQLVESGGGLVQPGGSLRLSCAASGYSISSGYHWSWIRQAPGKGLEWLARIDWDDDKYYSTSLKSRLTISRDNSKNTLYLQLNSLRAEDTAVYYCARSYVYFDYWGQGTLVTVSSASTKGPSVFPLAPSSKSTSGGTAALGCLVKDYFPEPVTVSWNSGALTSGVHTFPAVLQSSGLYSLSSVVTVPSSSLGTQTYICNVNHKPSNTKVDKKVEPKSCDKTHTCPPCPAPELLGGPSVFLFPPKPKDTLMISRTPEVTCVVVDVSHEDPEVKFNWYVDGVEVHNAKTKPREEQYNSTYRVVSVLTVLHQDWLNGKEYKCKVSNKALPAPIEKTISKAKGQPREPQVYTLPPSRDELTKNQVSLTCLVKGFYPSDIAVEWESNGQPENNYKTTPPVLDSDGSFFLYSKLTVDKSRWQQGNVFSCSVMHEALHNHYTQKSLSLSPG
light: DIQLTQSPSSLSASVGDRVTITCRASQSVRGRFLAWYQQKPGKAPKLLIYDASNRATGIPSRFSGSGSGTDFTLTISSLQPEDFATYYCQQSSSWPPTFGQGTKVEIKRTVAAPSVFIFPPSDEQLKSGTASVVCLLNNFYPREAKVQWKVDNALQSGNSQESVTEQDSKDSTYSLSSTLTLSKADYEKHKVYACEVTHQGLSSPVTKSFNRGEC
notes: IgG1; also called cleaved TY22404; not shown: remnant of the cleavable linker left after cleavage
B2: the “EC50 (read off the curve)” value in [1] is approximately 0.3 nM; in test [2] it was approximately 0.3 nM; in [3], approximately 0.3 nM; in [9], approximately 0.7 nM; in test [4], approximately 0.3 nM. Also, the “fold increased affinity compared to masked TY22404” value in test [5] is more than 100 fold; in test [6] it was approximately 40 fold; in test [7], more than 250 fold; in test [8], more than 300 fold. Besides, the EC50 in test [10], in [11], in test [12] and in test [13] was approximately 0.3 nM in each case.

B3: activated TY22404 by condition 1 (antibody)
heavy: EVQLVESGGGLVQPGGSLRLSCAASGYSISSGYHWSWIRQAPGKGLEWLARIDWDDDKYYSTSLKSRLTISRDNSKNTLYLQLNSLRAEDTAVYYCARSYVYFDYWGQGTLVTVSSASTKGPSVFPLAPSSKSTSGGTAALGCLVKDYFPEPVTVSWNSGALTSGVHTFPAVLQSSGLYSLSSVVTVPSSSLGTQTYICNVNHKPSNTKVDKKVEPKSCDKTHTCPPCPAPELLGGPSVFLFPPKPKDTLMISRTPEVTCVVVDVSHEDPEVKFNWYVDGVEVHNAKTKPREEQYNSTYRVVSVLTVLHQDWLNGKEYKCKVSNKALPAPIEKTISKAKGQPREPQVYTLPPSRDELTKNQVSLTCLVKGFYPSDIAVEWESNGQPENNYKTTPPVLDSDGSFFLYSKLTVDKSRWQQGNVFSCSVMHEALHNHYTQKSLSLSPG
light: DIQLTQSPSSLSASVGDRVTITCRASQSVRGRFLAWYQQKPGKAPKLLIYDASNRATGIPSRFSGSGSGTDFTLTISSLQPEDFATYYCQQSSSWPPTFGQGTKVEIKRTVAAPSVFIFPPSDEQLKSGTASVVCLLNNFYPREAKVQWKVDNALQSGNSQESVTEQDSKDSTYSLSSTLTLSKADYEKHKVYACEVTHQGLSSPVTKSFNRGEC
notes: as for B2
Consider B3, for which the “EC50 (read off the curve)” value in test [1], in [2], in [3] and in test [4] was approximately 0.3 nM in each case. Also, the “fold increased affinity compared to masked TY22404” value in test [5] is more than 100 fold; in [6] it was approximately 40 fold; in [7], more than 250 fold; in test [8], more than 300 fold. The EC50 in test [10], in test [11], in test [12] and in test [13] was approximately 0.3 nM throughout.
